± gives the standard deviation of the averaged measurements.
How the values were obtained:
[1] = test system: Saccharomyces cerevisiae; assay: protein stability index of tFT-peptide fusion (C-terminal peptide) (PSI (0-1 scale)); higher = more stable (slower turnover); settings: genetic background: wild type; temperature: 30 C
[2] = test system: Saccharomyces cerevisiae; assay: as above
Method: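 MPS profiling in S. cerevisiae of the tFT-X12 degron library: putative degron peptides plus stable controls, 12 aa, fused to the C-terminus of a sfGFP-mCherry timer. Cells are FACS-sorted into 8 mCherry/sfGFP bins and deep-sequenced. PSI runs from 0 (unstable) to 1 (stable). Backgrounds are wild type, das1Δ and doa10Δ at 30 °C, and wild type, das1Δ, cdc34-1 and cdc53-1 at 37 °C; 2-3 technical replicates each.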

[3] = genetic background: cdc34-1, temperature: 37 C
[4] = genetic background: cdc53-1, temperature: 37 C
[5] = genetic background: das1 deletion, temperature: 30 C
[6] = genetic background: das1 deletion, temperature: 37 C
[7] = genetic background: doa10 deletion, temperature: 30 C
[8] = genetic background: wild type, temperature: 30 C
[9] = genetic background: wild type, temperature: 37 C
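Further: PSI is a weighted mean of sequencing reads over stability bins, variants kept only with over 10 reads, mCherry proximal and sfGFP distal, peptide attached via GGGS linker.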

Sequence | protein stability index [1] | protein stability index [2, 3] | protein stability index [2, 4] | protein stability index [2, 5] | protein stability index [2, 6] | protein stability index [2, 7] | protein stability index [2, 8] | protein stability index [2, 9]
VVNFLVFRFFCI | 0.285 ± 0.06 | 0.53 ± 0.046 | 0.531 ± 0.015 | 0.481 ± 0.029 | 0.649 ± 0.026 | 0.216 ± 0.016 | 0.217 ± 0.037 | 0.39 ± 0.018
TVCSWSALSRFM | 0.587 ± 0.15 | 0.691 ± 0.042 | 0.7558 ± 0.0062 | 0.6449 ± 0.0016 | 0.76419 ± 0.00033 | 0.631 ± 0.032 | 0.627 ± 0.015 | 0.705 ± 0.0097
CCSGWSVRLLCV | 0.37 ± 0.025 | 0.578 ± 0.066 | 0.606 ± 0.036 | 0.494 ± 0.033 | 0.625 ± 0.025 | 0.243 ± 0.0063 | 0.269 ± 0.024 | 0.375 ± 0.0046
VRDQGWILNMLL | 0.485 ± 0.016 | 0.7266 ± 0.007 | 0.771 ± 0.024 | 0.651 ± 0.032 | 0.7546 ± 0.0011 | 0.3707 ± 0.0019 | 0.422 ± 0.028 | 0.639 ± 0.023
CFVWFSVVLLFA | 0.194 ± 0.0056 | 0.109 ± 0.015 | 0.159 ± 0.0066 | 0.134 ± 0.028 | 0.227 ± 0.0053 | 0.136 ± 0.0019 | 0.117 ± 0.016 | 0.202 ± 0.014
YDLRRIGRIGVG | 0.363 ± 0.016 | 0.316 ± 0.02 | 0.404 ± 0.012 | 0.348 ± 0.019 | 0.402 ± 0.016 | 0.3542 ± 0.003 | 0.338 ± 0.0099 | 0.381 ± 0.026
CCVLGDRCIGSD | 0.678 ± 0.057 | 0.699 ± 0.018 | 0.735 ± 0.011 | 0.635 ± 0.013 | 0.76 ± 0.019 | 0.631 ± 0.013 | 0.655 ± 0.022 | 0.718 ± 0.013
PPSPPPPPPSPF | 0.304 ± 0.025 | 0.695 ± 0.031 | 0.7371 ± 0.0055 | 0.683 ± 0.0043 | 0.7378 ± 0.0022 | 0.721 ± 0.031 | 0.679 ± 0.033 | 0.719 ± 0.034
VNFVLTLYPYLV | 0.378 ± 0.014 | 0.512 ± 0.024 | 0.577 ± 0.019 | 0.507 ± 0.024 | 0.603 ± 0.02 | 0.275 ± 0.016 | 0.278 ± 0.02 | 0.4472 ± 0.00073
WILLVLACFSSG | 0.325 ± 0.0036 | 0.25 ± 0.0033 | 0.335 ± 0.051 | 0.272 ± 0.036 | 0.40822 ± 2.1e-05 | 0.215 ± 0.011 | 0.249 ± 0.034 | 0.361 ± 0.017
GYAFPPPHRVRT | 0.741 ± 0.025 | 0.654 ± 0.073 | 0.7419 ± 0.0073 | 0.669 ± 0.023 | 0.7288 ± 0.0051 | 0.6865 ± 0.0043 | 0.652 ± 0.029 | 0.702 ± 0.016
WSLRFRRMMLRC | 0.283 ± 0.015 | 0.3765 ± 0.00088 | 0.425 ± 0.0072 | 0.429 ± 0.028 | 0.534 ± 0.0069 | 0.137 ± 0.0015 | 0.127 ± 0.026 | 0.16 ± 0.024
APEWGGGDEWWG | 0.767 ± 0.012 | 0.75 ± 0.04 | 0.802 ± 0.015 | 0.691 ± 0.014 | 0.804 ± 0.019 | 0.697 ± 0.015 | 0.7 ± 0.0091 | 0.7984 ± 0.0027
VGKGAGVRDGSR | 0.707 ± 0.026 | 0.693 ± 0.068 | 0.751 ± 0.019 | 0.623 ± 0.0077 | 0.7598 ± 0.0072 | 0.651 ± 0.017 | 0.645 ± 0.011 | 0.713 ± 0.016
SFTRYIFFLMFF | 0.355 ± 0.015 | 0.438 ± 0.051 | 0.475 ± 0.037 | 0.417 ± 0.023 | 0.585 ± 0.021 | 0.4089 ± 0.0013 | 0.325 ± 0.017 | 0.456 ± 0.0069
LSRELRFVGFYH | 0.318 ± 0.066 | 0.637 ± 0.07 | 0.751 ± 0.019 | 0.656 ± 0.017 | 0.717 ± 0.025 | 0.222 ± 0.004 | 0.229 ± 0.054 | 0.517 ± 0.043
YPGMFLQLVWWI | 0.176 ± 0.026 | 0.4297 ± 0.0022 | 0.552 ± 0.036 | 0.433 ± 0.03 | 0.5804 ± 0.0042 | 0.1211 ± 0.0011 | 0.117 ± 0.0026 | 0.126 ± 0.0019
TRPHPLRRVFIF | 0.293 ± 0.026 | 0.669 ± 0.034 | 0.725 ± 0.013 | 0.643 ± 0.0072 | 0.735 ± 0.013 | 0.226 ± 0.013 | 0.23 ± 0.038 | 0.433 ± 0.041
APRPSYSLLALL | 0.443 ± 0.025 | 0.733 ± 0.034 | 0.858 ± 0.13 | 0.711 ± 0.04 | 0.783 ± 0.026 | 0.375 ± 0.01 | 0.41 ± 0.0052 | 0.616 ± 0.043
FCVCLAVTCCGG | 0.354 ± 0.01 | 0.279 ± 0.023 | 0.42 ± 0.013 | 0.277 ± 0.023 | 0.477 ± 0.0066 | 0.215 ± 0.0029 | 0.26 ± 0.024 | 0.42 ± 0.011

Sequence | protein stability index [1] | protein stability index [2, 3] | protein stability index [2, 4] | protein stability index [2, 5] | protein stability index [2, 6] | protein stability index [2, 7] | protein stability index [2, 8] | protein stability index [2, 9]
FILLFGFSHWVW | 0.4316 ± 0.0023 | 0.449 ± 0.033 | 0.523 ± 0.023 | 0.375 ± 0.028 | 0.5333 ± 0.0017 | 0.364 ± 0.019 | 0.37 ± 0.03 | 0.476 ± 0.036
LFFWWVAVVFRV | 0.23 ± 0.038 | 0.0928 ± 0.025 | 0.0916 ± 0.006 | 0.156 ± 0.049 | 0.236 ± 0.029 | 0.204 ± 0.016 | 0.133 ± 0.02 | 0.189 ± 0.014
LCLLHCSICISF | 0.388 ± 0.014 | 0.352 ± 0.026 | 0.4113 ± 0.0012 | 0.301 ± 0.027 | 0.44881 ± 0.00028 | 0.285 ± 0.015 | 0.295 ± 0.036 | 0.4142 ± 0.0008
SRGGVFYVRIHS | 0.455 ± 0.051 | 0.647 ± 0.043 | 0.709 ± 0.014 | 0.628 ± 0.016 | 0.697 ± 0.018 | 0.239 ± 0.0035 | 0.279 ± 0.029 | 0.4917 ± 0.0011
RGGWVVVLGCVG | 0.501 ± 0.016 | 0.634 ± 0.034 | 0.6292 ± 0.0044 | 0.482 ± 0.029 | 0.6417 ± 0.0043 | 0.468 ± 0.021 | 0.486 ± 0.018 | 0.635 ± 0.036
VFCCHSSRFVFA | 0.414 ± 0.022 | 0.642 ± 0.027 | 0.6789 ± 0.0065 | 0.525 ± 0.025 | 0.6858 ± 0.0031 | 0.49 ± 0.016 | 0.501 ± 0.028 | 0.623 ± 0.019
VFCFCRFHFFCA | 0.484 ± 0.026 | 0.621 ± 0.066 | 0.649 ± 0.0077 | 0.496 ± 0.025 | 0.631 ± 0.026 | 0.432 ± 0.019 | 0.453 ± 0.02 | 0.563 ± 0.018
IYLLLFFFSFSA | 0.3914 ± 0.0012 | 0.365 ± 0.032 | 0.449 ± 0.053 | 0.376 ± 0.017 | 0.5104 ± 0.0037 | 0.3328 ± 6e-05 | 0.348 ± 0.029 | 0.457 ± 0.024
LLLPVFLVFSVS | 0.326 ± 0.034 | 0.295 ± 0.046 | 0.417 ± 0.005 | 0.269 ± 0.037 | 0.482 ± 0.012 | 0.2258 ± 0.0016 | 0.256 ± 0.03 | 0.47 ± 0.058
RWPLVIRSLIVF | 0.2944 ± 0.0027 | 0.196 ± 0.0088 | 0.226 ± 0.0098 | 0.251 ± 0.026 | 0.325 ± 0.019 | 0.214 ± 0.00073 | 0.22 ± 0.017 | 0.233 ± 0.01
PPLLLFLSLAFL | 0.381 ± 0.054 | 0.322 ± 0.02 | 0.407 ± 0.012 | 0.285 ± 0.027 | 0.449 ± 0.015 | 0.239 ± 0.012 | 0.271 ± 0.028 | 0.441 ± 0.009
FLLFFVLRLLPC | 0.316 ± 0.018 | 0.272 ± 0.0094 | 0.293 ± 0.03 | 0.236 ± 0.035 | 0.396 ± 0.016 | 0.255 ± 0.013 | 0.231 ± 0.026 | 0.376 ± 0.011
SWCLLVWIGGVF | 0.388 ± 0.094 | 0.288 ± 0.038 | 0.376 ± 0.033 | 0.295 ± 0.027 | 0.451 ± 0.02 | 0.251 ± 0.01 | 0.264 ± 0.03 | 0.432 ± 0.017
DVCGVRYVLFVL | 0.502 ± 0.013 | 0.57 ± 0.014 | 0.647 ± 0.018 | 0.49 ± 0.025 | 0.655 ± 0.024 | 0.416 ± 0.0086 | 0.428 ± 0.026 | 0.597 ± 0.026
LLFVLWLSFFVL | 0.346 ± 0.031 | 0.3135 ± 0.0016 | 0.384 ± 0.074 | 0.272 ± 0.03 | 0.449 ± 0.012 | 0.239 ± 0.0027 | 0.247 ± 0.034 | 0.382 ± 0.04
PPSPPLPPPSPF | 0.34 ± 0.046 | 0.671 ± 0.013 | 0.773 ± 0.019 | 0.69 ± 0.0097 | 0.742 ± 0.041 | 0.694 ± 0.036 | 0.67 ± 0.018 | 0.707 ± 0.016
VFGCHHLEVSVC | 0.34 ± 0.0065 | 0.248 ± 0.012 | 0.267 ± 0.0036 | 0.259 ± 0.034 | 0.377 ± 0.0065 | 0.203 ± 0.012 | 0.241 ± 0.024 | 0.34 ± 0.012
VGYSLFTFLFCA | 0.432 ± 0.0057 | 0.579 ± 0.014 | 0.6313 ± 0.0052 | 0.481 ± 0.03 | 0.6315 ± 0.0016 | 0.303 ± 0.011 | 0.335 ± 0.017 | 0.51 ± 0.027
LCVFFRCFFVGG | 0.514 ± 0.028 | 0.529 ± 0.046 | 0.588 ± 0.022 | 0.457 ± 0.015 | 0.608 ± 0.0094 | 0.433 ± 0.017 | 0.448 ± 0.018 | 0.5722 ± 0.0043

Source: the supplement of paper PMC10724198
